# Reference: paper PMC4346194 (Structure (London, England : 1993), 2015)
# T1: GST-tagged FL-importin α3 (RRRR) (human, UniProt O00629 1-521, Q28R)
# T1 sequence: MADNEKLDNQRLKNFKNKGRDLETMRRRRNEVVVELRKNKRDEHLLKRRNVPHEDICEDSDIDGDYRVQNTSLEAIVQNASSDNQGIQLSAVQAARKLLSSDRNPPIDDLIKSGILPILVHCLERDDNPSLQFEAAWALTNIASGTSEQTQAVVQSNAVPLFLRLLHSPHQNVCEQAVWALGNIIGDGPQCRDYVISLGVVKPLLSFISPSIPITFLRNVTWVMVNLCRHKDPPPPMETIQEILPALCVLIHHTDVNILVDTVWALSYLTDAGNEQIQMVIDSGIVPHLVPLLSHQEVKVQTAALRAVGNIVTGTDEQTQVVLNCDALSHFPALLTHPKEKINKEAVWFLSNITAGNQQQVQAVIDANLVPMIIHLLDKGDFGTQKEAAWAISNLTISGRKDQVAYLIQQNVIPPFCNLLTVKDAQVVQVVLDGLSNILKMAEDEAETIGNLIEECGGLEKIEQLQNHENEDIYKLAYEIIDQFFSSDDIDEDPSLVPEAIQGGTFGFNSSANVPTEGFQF
# T2: GST-tagged FL-importin α3 (human, UniProt O00629 1-521)
# T2 sequence: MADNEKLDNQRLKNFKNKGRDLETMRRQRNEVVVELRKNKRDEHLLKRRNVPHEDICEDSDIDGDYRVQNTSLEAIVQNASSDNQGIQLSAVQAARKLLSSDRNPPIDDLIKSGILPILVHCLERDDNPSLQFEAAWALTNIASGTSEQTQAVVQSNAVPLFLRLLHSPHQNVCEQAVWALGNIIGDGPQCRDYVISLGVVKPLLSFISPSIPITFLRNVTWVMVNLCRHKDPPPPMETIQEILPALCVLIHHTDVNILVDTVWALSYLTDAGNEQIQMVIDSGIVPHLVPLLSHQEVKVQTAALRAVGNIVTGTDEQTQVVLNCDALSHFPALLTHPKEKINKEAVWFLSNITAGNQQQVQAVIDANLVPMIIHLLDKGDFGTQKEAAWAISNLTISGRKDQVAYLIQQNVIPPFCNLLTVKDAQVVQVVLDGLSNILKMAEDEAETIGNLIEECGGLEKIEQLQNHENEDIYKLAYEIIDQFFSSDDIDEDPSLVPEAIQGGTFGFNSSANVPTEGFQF
# Legend:
# Assay in all cases: pull-down
# [1] = target: GST-tagged FL-importin α7 (human, UniProt O60684 1-536)
# [2] = target: T1, GST-tagged FL-importin α3 (RRRR)
# [3] = target: T2, GST-tagged FL-importin α3
# [4] = target: GST-tagged FL-importin α1 (mouse, UniProt P52293 1-529)
binder,measurement,setting,value
"KRPAATKKAGQAKKKK [MBP-tagged nucleoplasmin NLS (NP-NLS, res. 155-170)]",percent of importin α bound to cargo,[1],46%
same,percent of importin α bound to cargo,[2],27%
same,percent of importin α bound to cargo,[3],35%
same,percent of importin α bound to cargo,[4],25%
